Measured values reported in patent US20230080534A1, “SEMG2 ANTIBODY AND USE THEREOF” (SHANGHAI BIOTROY BIOTECHNIQUE CO., LTD., priority 2020, published 2023).
No end group written: not given here.

How the values were obtained:
CD27 protein = target: T1, CD27 protein (Homo sapiens, UniProt P26842); test: ELISA binding of BSA-conjugated SEMG2 (497-509) polypeptides to CD27; details: versus negative BSA control
T1 construct: the extracellular region of human CD27 protein fused to the Fe fragment of human antibody
T1 sequence (P26842 20-191 limits assumed): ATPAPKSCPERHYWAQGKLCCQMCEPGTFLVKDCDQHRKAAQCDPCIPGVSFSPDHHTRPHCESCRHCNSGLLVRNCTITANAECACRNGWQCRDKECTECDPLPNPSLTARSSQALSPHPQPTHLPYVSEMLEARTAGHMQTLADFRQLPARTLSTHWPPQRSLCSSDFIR
Method: (§1) FIG. 6 depicts the binding between SEMG2 epitope polypeptides and CD27, and its competitive inhibition of full-length SEMG2 binding to CD27. […] As shown in the figure, different concentrations of peptides are firstly co-incubated with CD27-Fc for binding, and then added into the micro-reaction plate pre-coated with SEMG2 protein. After co-incubation, the unconjugated molecules are washed off, and anti-Fc secondary antibody-HRP are then used for detecting and developing.
These mutant plasmids and CD27 expression vector were co-transfected into HEK293 cells, and the degree of GFP-fused 1-13 polypeptide variants binding to CD27 was detected by co-immunoprecipitation assay. […] Therefore, it can be seen that the amino acids at positions 497, 498, 499, 500, 501, 502, 503, 504, 505, 506 and 508 of SEMG2 have obvious effects on the binding to CD27. The peptide sequence 497-509 was coupled to BSA, and coated onto a 96-well microplate. CD27-hFc at different concentrations was used as the primary antibody to detect the ability of CD27 to bind to the peptide sequence.

[1] = target: T2, binding between full-length SEMG2 and CD27 (Homo sapiens, UniProt P26842); test: Peptide competition ELISA: CD27-Fc pre-incubated with peptide, added to SEMG2-coated plate; details: different concentrations of peptide co-incubated with CD27-Fc
T2 construct: the extracellular region of human CD27 protein fused to the Fe fragment of human antibody
T2 sequence (P26842 20-191 limits assumed): T1 sequence (P26842 20-191 limits assumed)
Method: as §1

human CD27 = target: T3, human CD27 (Homo sapiens, UniProt P26842); test: Co-immunoprecipitation of GFP-fused SEMG2 fragments with CD27 in co-transfected HEK293 cells; format: binding; details: GFP-fused fragment co-transfected with CD27 into HEK293 cells
T3 construct: HA; expressed in transfected cells; host or cells: HEK293
T3 sequence (P26842 20-260): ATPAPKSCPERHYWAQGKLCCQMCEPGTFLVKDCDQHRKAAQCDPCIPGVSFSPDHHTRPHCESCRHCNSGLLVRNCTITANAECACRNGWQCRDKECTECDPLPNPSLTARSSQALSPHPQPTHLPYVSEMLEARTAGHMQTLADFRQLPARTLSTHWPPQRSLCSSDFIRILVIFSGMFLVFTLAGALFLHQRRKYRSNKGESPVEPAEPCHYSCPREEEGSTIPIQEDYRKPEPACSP
Method: (§2) In co-immunoprecipitation experiment, cells were lysed in IP buffer (Thermo Scientific) and Roche complete protease inhibitor for 10 minutes, followed by the addition of benzonase (sigma) for 25 minutes at room temperature. The lysate was then centrifuged at 15,000 rpm at 4° C. to remove the precipitate. The supernatant was then incubated with primary antibody slowly rotated overnight at 4° C., followed by the addition of protein A or protein G dynabeads and incubated at 4° C. for 2 hours, washed for 4 times in PBST (PBS with 0.01% Tween 20), eluted with 50 mM DTT in SDS sample buffer for 10 minutes at 100° C., separated with SDS, and immunoblotted as previously described.
To further confirm which part of SEMG-2 binds to CD27, fragments of SEMG2 protein were designed. The amino acid sequence of full-length SEMG2 protein (SEQ ID NO:1) was divided into 6 segments of sequences, fused with GFP and named as SEMG2-P1, SEMG2-P2, SEMG2-P3, SEMG2-P4, SEMG2-P5 and SEMG2-P6 (See Table 1 for specific sequences, with corresponding abbreviation as P1-P6 respectively). Plasmids expressing these amino acid sequences were co-transfected with CD27 into HEK293 cells, and co-immunoprecipitation experiments were performed to identify the main fragment of SEMG2 that binds to CD27. […]

mouse CD27 = target: T4, mouse CD27 (Mus musculus, UniProt P41272); test: Co-immunoprecipitation of GFP-fused SEMG2 fragments with mouse CD27 in co-transfected HEK293 cells; format: binding; details: GFP-fused fragment co-transfected with mouse CD27 into HEK293 cells
T4 construct: HA; expressed in transfected cells; host or cells: HEK293
T4 sequence (P41272 24-250): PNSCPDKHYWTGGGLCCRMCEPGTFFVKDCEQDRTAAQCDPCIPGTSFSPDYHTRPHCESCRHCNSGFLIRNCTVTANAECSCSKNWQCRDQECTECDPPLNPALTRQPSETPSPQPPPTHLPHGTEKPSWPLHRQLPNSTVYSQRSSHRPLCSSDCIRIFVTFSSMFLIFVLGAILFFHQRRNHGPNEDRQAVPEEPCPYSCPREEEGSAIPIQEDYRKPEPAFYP
Method: as §2
To further confirm the key amino acids in the binding between SEMG2-P5 sequence and CD27, SEMG2(497-509) fragment was selected and named as SEMG2-P7 (the specific sequence is QIEKLVEGKSQIQ, abbreviated as P7 or SP7). SEMG2-P7(497-509), SEMG2-P5(positive control), SEMG2-P4 (negative control) or SEMG2-P6 (negative control) was co-transfected with CD27 into HEK293 cells respectively, including human CD27 and mouse CD27. […] This co-immunoprecipitation experiment confirmed that SEMG2(497-509) is the main structure that binds to human and mouse CD27.

Substance	binding to CD27 protein on the microplate (CD27 protein)	inhibitory effect on the binding between full-length SEMG2 and CD27 [1]	binding to CD27 (co-immunoprecipitation) (human CD27)	binding to mouse CD27 (co-immunoprecipitation) (mouse CD27)
QIAKLVEGKSQ [SEMG2-derived polypeptide derivative]		can inhibit the binding		
QIEKLVEGKSQ (UNSURE (1)..(11) Epitope peptides)		can inhibit the binding		
QIEKLVEGKSQIQ (UNSURE (1)..(13) Epitope peptides) [SEMG2-P7]		can inhibit the binding	bind	bind

The next lines start with the values.

binding to CD27 protein on the microplate (CD27 protein)	inhibitory effect on the binding between full-length SEMG2 and CD27 [1]	binding to CD27 (co-immunoprecipitation) (human CD27)	binding to mouse CD27 (co-immunoprecipitation) (mouse CD27)	Substance
can bind				BSA-conjugated human SEMG2 (497-509) polypeptide: human SEMG2 (497-509) peptide coupled to BSA (QIEKLVEGKSQIQ; also: coupled to BSA, site not given here)
	can inhibit the binding			QIEKLVEGKSQI (UNSURE (1)..(12) Epitope peptides)
